± gives the standard deviation of the averaged measurements.
B1: library; a variant is named by its letters at N, in order (parent)
chain: GCUGUCACCGGUGCUUGGUACGUUAUAUUCAGCCGGUCUGAUGAGUCUNNNNNNAGACGAAACAGC

How the values were obtained:
(6R,S)-folinic acid [1] = variants of: B1; experiment: normalized RNA/DNA level without ligand (relative to sTRSVctl = 100) (log10 (% of sTRSVctl)); HEK293T overexpressing SLC46A1; higher = less ribozyme self-cleavage, higher mRNA level; conditions: without (6R,S)-folinic acid; ligand present: no
How it was run: (§1)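 Library plasmids encoding reporter-linked ribozyme switches (mCherry, or eGFP for some folinic acid experiments) were transfected into HEK293T at 4 µg per 6-well well. Ligand, when used, was added 1 h before transfection. Total RNA was extracted with EDTA 72 h later, then reverse-transcribed, amplified, barcoded and sequenced. RNA level was RNA reads over DNA reads, divided by a spiked-in non-cleaving control (or the top 25 sequences), ×100, log10; only sequences with ≥100 DNA reads were kept.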

(6R,S)-folinic acid [2] = variants of: B1; experiment: normalized RNA/DNA level with ligand (relative to sTRSVctl = 100) (log10 (% of sTRSVctl)); HEK293T overexpressing SLC46A1; ligand concentration (+) RNA-Seq: 6 mM; higher = less ribozyme self-cleavage, higher mRNA level; conditions: with (6R,S)-folinic acid; ligand present: yes
How it was run: as §1

| Variant | normalized RNA/DNA level without ligand (log10) ((6R,S)-folinic acid [1]) | normalized RNA/DNA level with ligand (log10) ((6R,S)-folinic acid [2]) |
| --- | --- | --- |
| CGCCUA | 2.05 ± 0.0096 | 2.05 ± 0.061 |
| AGAUCC | 2.058 ± 0.0091 | 2.033 ± 0.02 |
| AGAUCU | 2.0242 ± 0.00035 | 2.05 ± 0.032 |
| AGAUCG | 1.992 ± 0.0077 | 2.013 ± 0.019 |
| UGAGUC | 2.011 ± 0.012 | 2 ± 0.049 |
| UGAGUU | 1.943 ± 0.0073 | 1.99 ± 0.035 |
| GGAUGC | 1.912 ± 0.002 | 1.962 ± 0.015 |
| GGAUGA | 2.024 ± 0.02 | 2.058 ± 0.0075 |
| GGAUGU | 1.972 ± 0.0047 | 2.03 ± 0.052 |
| GGAUGG | 1.948 ± 0.012 | 2.02 ± 0.033 |
| AGCAAC | 2.004 ± 0.0095 | 2.01 ± 0.038 |
| AGCAAG | 1.935 ± 0.0032 | 2.01 ± 0.025 |
| AGCAAU | 1.995 ± 0.0032 | 2.01 ± 0.033 |
| CGACUU | 2.01 ± 0.035 | 2.05 ± 0.025 |
| CGACUC | 2.08 ± 0.023 | 2.04 ± 0.07 |
| CGACUA | 2.014 ± 0.0047 | 2.042 ± 0.0086 |
| CGACUG | 2.028 ± 0.0025 | 2.014 ± 0.011 |
| AGAUAU | 1.97 ± 0.011 | 2.04 ± 0.038 |
| AGAUAG | 1.9299 ± 0.00079 | 2.01 ± 0.041 |
| AGAUAC | 1.983 ± 0.0026 | 2.022 ± 0.02 |
| AGCAUC | 2.082 ± 0.012 | 2.0495 ± 0.0016 |
| AGCAUG | 1.957 ± 0.004 | 2.03 ± 0.018 |
| AGCAUA | 1.985 ± 0.014 | 2.017 ± 0.016 |

| Variant | normalized RNA/DNA level without ligand (log10) ((6R,S)-folinic acid [1]) | normalized RNA/DNA level with ligand (log10) ((6R,S)-folinic acid [2]) |
| --- | --- | --- |
| AGCAUU | 2.012 ± 0.0048 | 2.01 ± 0.028 |
| UGCACA | 1.97 ± 0.024 | 2.01 ± 0.036 |
| UGCACC | 2.036 ± 0.0046 | 1.98 ± 0.028 |
| UGCACU | 2.017 ± 0.0058 | 2.04 ± 0.033 |
| UGCACG | 1.8081 ± 0.0015 | 1.977 ± 0.013 |
| UGAUGC | 1.954 ± 0.013 | 1.998 ± 0.01 |
| CGCCAU | 1.986 ± 0.0097 | 1.98 ± 0.034 |
| CGCCAA | 1.973 ± 0.014 | 2.02 ± 0.048 |
| CGCCAC | 2 ± 0.028 | 1.99 ± 0.042 |
| AGAGCG | 1.775 ± 0.0033 | 1.97 ± 0.029 |
| AGAGCC | 2.05 ± 0.003 | 2.04 ± 0.045 |
| AGAGCA | 1.977 ± 0.0046 | 2.01 ± 0.051 |
| CGAUAA | 1.946 ± 0.015 | 1.98 ± 0.04 |
| CGAUAG | 1.959 ± 0.0024 | 1.977 ± 0.01 |
| CGAUAU | 1.949 ± 0.0095 | 2.01 ± 0.028 |
| CGAUAC | 1.995 ± 0.013 | 2.015 ± 0.0083 |
| UGAGCA | 1.95 ± 0.014 | 2.0212 ± 0.00076 |
| UGAGCC | 2.038 ± 0.0055 | 2.04 ± 0.041 |
| GGCAGU | 2.058 ± 0.0031 | 2.013 ± 0.0043 |
| GGCAGG | 2.064 ± 0.015 | 2.045 ± 0.0058 |
| GGCAGC | 2.001 ± 0.008 | 1.98 ± 0.032 |
| GGCAGA | 2.077 ± 0.0039 | 2.033 ± 0.004 |
| GGAGGA | 1.975 ± 0.0041 | 2.01 ± 0.046 |

| Variant | normalized RNA/DNA level without ligand (log10) ((6R,S)-folinic acid [1]) | normalized RNA/DNA level with ligand (log10) ((6R,S)-folinic acid [2]) |
| --- | --- | --- |
| GGAGGG | 1.98 ± 0.028 | 2.04 ± 0.046 |
| AGAGGU | 1.889 ± 0.0033 | 2 ± 0.076 |
| AGAGGG | 1.78 ± 0.02 | 2.01 ± 0.015 |
| AGAGGC | 2.018 ± 0.02 | 2.01 ± 0.04 |
| AGAGGA | 1.929 ± 0.014 | 2.02 ± 0.039 |
| CGCAUC | 2.08 ± 0.021 | 1.97 ± 0.036 |
| CGCAUG | 2.01 ± 0.019 | 2.01 ± 0.022 |
| CGCCCG | 2.03 ± 0.029 | 2.031 ± 0.0094 |
| CGCCCA | 2.068 ± 0.0022 | 2.06 ± 0.033 |
| CGCCCU | 2.09 ± 0.04 | 2.092 ± 0.017 |
| CGCCCC | 2.082 ± 0.017 | 2.04 ± 0.057 |
| AGCCAU | 1.986 ± 0.013 | 1.99 ± 0.029 |
| AGCCAA | 1.9858 ± 0.00027 | 1.99 ± 0.037 |
| AGCCAG | 1.985 ± 0.0073 | 2.04 ± 0.035 |
| AGCCAC | 2.016 ± 0.003 | 2 ± 0.037 |
| GGAGCA | 1.978 ± 0.0021 | 2.02 ± 0.022 |
| GGAGCU | 2.045 ± 0.017 | 2.04 ± 0.04 |
| GGAGCG | 1.939 ± 0.011 | 2.02 ± 0.041 |
| UGAUAU | 1.92 ± 0.034 | 1.984 ± 0.014 |
| UGAUAG | 1.7093 ± 0.0017 | 1.96 ± 0.049 |
| UGACCC | 2.041 ± 0.011 | 2.02 ± 0.026 |
| UGACCG | 1.983 ± 0.0022 | 2.01 ± 0.023 |
| UGACCU | 2.058 ± 0.011 | 2.06 ± 0.034 |

| Variant | normalized RNA/DNA level without ligand (log10) ((6R,S)-folinic acid [1]) | normalized RNA/DNA level with ligand (log10) ((6R,S)-folinic acid [2]) |
| --- | --- | --- |
| AGAUUG | 1.89 ± 0.014 | 2.004 ± 0.018 |
| AGAUUU | 2.0581 ± 0.0011 | 2.04 ± 0.024 |
| GGCCGU | 2.0789 ± 0.0012 | 2.02 ± 0.007 |
| GGCCGA | 2.081 ± 0.0077 | 2.05 ± 0.037 |
| GGCCGC | 2.073 ± 0.012 | 2.083 ± 0.011 |
| GGCCGG | 2.08 ± 0.021 | 2.051 ± 0.015 |
| CGAUGU | 1.98 ± 0.0073 | 1.99 ± 0.047 |
| CGAUGG | 1.928 ± 0.017 | 1.972 ± 0.019 |
| CGAUGA | 2.011 ± 0.0023 | 2.02 ± 0.078 |
| CGAUGC | 2.039 ± 0.0072 | 2.008 ± 0.0096 |
| CGCACU | 2.0385 ± 0.00015 | 2.01 ± 0.034 |
| CGCACC | 2.079 ± 0.014 | 2.07 ± 0.063 |
| CGCACG | 2.046 ± 0.0062 | 2.026 ± 0.018 |
| CGCACA | 1.989 ± 0.0068 | 1.98 ± 0.026 |
| AGAGAU | 1.982 ± 0.011 | 1.99 ± 0.023 |
| AGAGAA | 1.953 ± 0.0039 | 1.99 ± 0.025 |
| AGAGAC | 1.981 ± 0.0066 | 2.009 ± 0.016 |
| AGAGAG | 1.67 ± 0.022 | 1.966 ± 0.015 |
| AGAUGU | 1.971 ± 0.0095 | 2.02 ± 0.036 |
| AGAUGC | 2.017 ± 0.0026 | 2.03 ± 0.021 |
| AGACAC | 2.0193 ± 0.00083 | 2.01 ± 0.028 |
| AGACAA | 2.004 ± 0.0066 | 2.01 ± 0.03 |
| AGACAU | 1.994 ± 0.0052 | 2.02 ± 0.026 |

| Variant | normalized RNA/DNA level without ligand (log10) ((6R,S)-folinic acid [1]) | normalized RNA/DNA level with ligand (log10) ((6R,S)-folinic acid [2]) |
| --- | --- | --- |
| UGCAGC | 1.982 ± 0.0063 | 2.012 ± 0.018 |
| UGCAGU | 1.9094 ± 0.0015 | 1.96 ± 0.026 |
| CGAGCC | 2.06 ± 0.028 | 2.03 ± 0.039 |
| CGAGCU | 2.014 ± 0.02 | 2.03 ± 0.04 |
| CGAGCA | 2 ± 0.021 | 2.02 ± 0.029 |
| CGAGCG | 1.994 ± 0.015 | 1.998 ± 0.017 |
| CGAGGU | 2.02 ± 0.02 | 2.02 ± 0.054 |
| CGAGGA | 2.019 ± 0.0022 | 2.04 ± 0.029 |
| CGAGGC | 2.03 ± 0.013 | 2.04 ± 0.031 |
| GGACGC | 1.949 ± 0.0027 | 1.96 ± 0.025 |
| GGACGG | 2.008 ± 0.015 | 2.04 ± 0.033 |
| GGAUCC | 2.0688 ± 0.00086 | 2.06 ± 0.037 |
| GGAUCA | 2.02 ± 0.021 | 2.03 ± 0.05 |
| GGAUCU | 2.037 ± 0.0059 | 2.03 ± 0.045 |
| GGAUCG | 2.0373 ± 0.00033 | 2.08 ± 0.045 |
| CGAGAC | 1.947 ± 0.015 | 1.974 ± 0.012 |
| CGAGAG | 1.964 ± 0.015 | 1.964 ± 0.0059 |
| CGAGAU | 1.957 ± 0.011 | 1.99 ± 0.025 |
| CGAAUU | 2 ± 0.026 | 2.01 ± 0.037 |
| UGACUU | 2.006 ± 0.014 | 2.017 ± 0.015 |
| UGACUA | 1.963 ± 0.0017 | 2.0143 ± 0.0019 |
| UGACUC | 2.075 ± 0.011 | 2.042 ± 0.0068 |
| UGCCCG | 1.95 ± 0.022 | 2.01 ± 0.07 |
